Tested on: recombinant SDI-1 protein

## CDK2 (kinase assays of Example 11)
  phosphorylation of histone H1: The recombinant SDI-1 protein of the present invention inhibits the phosphorylation of histone H1 by CDK2
